Where a chain is given by its changes, count along the chain named. In names and notes the source's numbering stands.
T1: cynomolgus monkey MSLN protein (Harbour BioMed, Batch #: 2019072202) (cynomolgus monkey)
T1 construct: also called recombinant cynomolgus monkey MSLN ECD His-tag protein
T1 chain: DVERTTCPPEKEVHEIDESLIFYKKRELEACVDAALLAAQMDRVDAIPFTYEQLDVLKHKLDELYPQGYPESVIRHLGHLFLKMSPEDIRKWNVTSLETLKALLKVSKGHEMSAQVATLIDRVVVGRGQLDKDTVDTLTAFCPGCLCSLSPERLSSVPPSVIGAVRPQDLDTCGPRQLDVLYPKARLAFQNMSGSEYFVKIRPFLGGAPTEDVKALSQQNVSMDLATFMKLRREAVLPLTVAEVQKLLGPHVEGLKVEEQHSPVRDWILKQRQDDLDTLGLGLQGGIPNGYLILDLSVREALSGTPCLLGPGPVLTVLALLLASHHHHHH

B1: PR300186 (antibody, human IgG1, kappa, V domains shown)
VH: QVQLQESGPGLVKPSETLSLTCTVSGGSINNYYWSWVRQPPGKGLEWIGYIFYSGSTNSNPSLKSRVIISVDTSKNQFSLKLSSVTAADTAVYYCAREVGRIAVAGWFFDLWGRGTLVTVSS
VL: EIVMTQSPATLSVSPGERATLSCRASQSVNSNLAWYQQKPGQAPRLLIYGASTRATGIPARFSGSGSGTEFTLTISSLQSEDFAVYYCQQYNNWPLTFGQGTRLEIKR
notes: Initial antibody from Harbour H2L2 transgenic mice; also called anti-MSLN antibody PR300186
B2: PR300186-2 (antibody, human IgG1, kappa, V domains shown)
VH: B1 VH with N30Q
VL: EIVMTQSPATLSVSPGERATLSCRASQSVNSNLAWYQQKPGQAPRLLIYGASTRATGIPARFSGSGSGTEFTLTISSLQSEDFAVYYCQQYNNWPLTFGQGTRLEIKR
notes: PTM variant of PR300186: Heavy chain N30Q
B3: PR300186-3 (antibody, human IgG1, kappa, V domains shown)
VH: B1 VH with N30Q, N58Q
VL: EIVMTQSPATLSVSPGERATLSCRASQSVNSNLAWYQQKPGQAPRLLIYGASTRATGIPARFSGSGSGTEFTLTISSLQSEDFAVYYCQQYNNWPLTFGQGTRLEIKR
notes: PTM variant of PR300186: Heavy chain N30Q and N58Q
B4: PR300186-6 (antibody, human IgG1, kappa, V domains shown)
VH: B1 VH with N30Q, S59A
VL: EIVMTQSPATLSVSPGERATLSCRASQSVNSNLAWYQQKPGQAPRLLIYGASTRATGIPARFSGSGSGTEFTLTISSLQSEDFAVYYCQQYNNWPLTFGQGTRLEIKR
notes: PTM variant of PR300186: Heavy chain N30Q and S59A
B5: PR300186-9 (antibody, human IgG1, kappa, V domains shown)
VH: B1 VH
VL: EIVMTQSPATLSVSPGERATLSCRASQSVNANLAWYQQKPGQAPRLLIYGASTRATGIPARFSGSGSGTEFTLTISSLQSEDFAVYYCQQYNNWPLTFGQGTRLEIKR
notes: PTM variant of PR300186: Light chain S31A
B6: PR300186-10 (antibody, human IgG1, kappa, V domains shown)
VH: B1 VH with N30Q, N58Q
VL: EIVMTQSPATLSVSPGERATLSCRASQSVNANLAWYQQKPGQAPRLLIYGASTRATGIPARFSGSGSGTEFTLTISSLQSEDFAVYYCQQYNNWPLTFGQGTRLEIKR
notes: PTM variant of PR300186: Heavy chain N30Q and N58Q, Light chain S31A
B7: PR300186-7 (antibody, human IgG1, kappa, V domains shown)
VH: B1 VH with N30Q
VL: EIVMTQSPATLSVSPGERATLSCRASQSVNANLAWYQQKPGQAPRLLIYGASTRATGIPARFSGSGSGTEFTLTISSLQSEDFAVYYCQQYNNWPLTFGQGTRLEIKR
notes: PTM variant of PR300186: Heavy chain N30Q, Light chain S31A
B8: PR300186-4 (antibody, human IgG1, kappa, V domains shown)
VH: B1 VH with N30Q, N58Q
VL: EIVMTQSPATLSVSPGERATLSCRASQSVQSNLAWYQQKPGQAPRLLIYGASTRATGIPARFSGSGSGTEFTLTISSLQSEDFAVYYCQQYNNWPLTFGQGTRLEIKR
notes: PTM variant of PR300186: Heavy chain N30Q and N58Q, Light chain N30Q
B9: PR300186-8 (antibody, human IgG1, kappa, V domains shown)
VH: B1 VH with N30Q, S59A
VL: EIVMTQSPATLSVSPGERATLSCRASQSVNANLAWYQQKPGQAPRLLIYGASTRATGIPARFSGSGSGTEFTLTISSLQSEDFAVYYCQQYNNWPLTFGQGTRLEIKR
notes: PTM variant of PR300186: Heavy chain N30Q and S59A, Light chain S31A
B10: PR300186-5 (antibody, human IgG1, kappa, V domains shown)
VH: B1 VH
VL: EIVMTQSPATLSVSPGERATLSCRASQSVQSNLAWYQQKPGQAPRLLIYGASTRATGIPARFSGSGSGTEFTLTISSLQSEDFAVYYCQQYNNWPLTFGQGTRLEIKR
notes: PTM variant of PR300186: Light chain N30Q

Target: T2, Human MSLN (Acro Biosystems, Cat #: MSN-H5223) (human, UniProt Q13421 296-580, limits assumed)
T2 construct: extracellular domain; Bought protein; also called human MSLN protein; recombinant human MSLN ECD His-tag protein; not shown: His tag
T2 sequence (Q13421 other isoform, or with tags, fused parts or gaps limits assumed): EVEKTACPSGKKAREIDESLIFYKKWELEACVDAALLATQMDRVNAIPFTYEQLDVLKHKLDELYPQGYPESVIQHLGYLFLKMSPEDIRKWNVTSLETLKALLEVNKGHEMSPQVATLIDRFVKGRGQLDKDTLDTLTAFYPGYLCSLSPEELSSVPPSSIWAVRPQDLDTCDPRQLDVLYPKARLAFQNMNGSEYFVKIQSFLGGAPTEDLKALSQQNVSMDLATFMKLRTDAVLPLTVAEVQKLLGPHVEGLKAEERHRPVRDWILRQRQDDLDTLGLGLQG
Test: ELISA, human MSLN protein coated on plate

EC50	Span	Binder
0.12 nM	3.42	B1
0.14 nM	3.36	B2
0.1 nM	3.25	B3
0.21 nM	3.66	B4
0.11 nM	3.85	B5
0.1 nM	3.71	B6
0.14 nM	3.85	B7
0.18 nM	3.47	B8
0.13 nM	3.87	B9
0.22 nM	3.61	B10

Target: T1, cynomolgus monkey MSLN protein (Harbour …)
Test: ELISA, cynomolgus monkey MSLN protein coated on plate

EC50	Span	Binder
0.05 nM	2.33	B1
0.05 nM	2.43	B2
0.05 nM	2.36	B3
0.07 nM	2.67	B4
0.05 nM	2.19	B5
0.04 nM	2.19	B6
0.04 nM	2.24	B7
0.07 nM	2.53	B8
0.04 nM	2.18	B9
0.07 nM	2.7	B10
